From patent US20140271467A1 (Stanford University, published 2014)
Values belong to the binder of their own block, whether it stands above or below them.

Assays:
[1] = target: T1, biotinylated human CD20 extracellular loop peptide (amino acids 165-185) (human, biotin at the C-terminus (printed as SEQ ID NO: 1-biotin)); assay: selection from the G4 library against the CD20 peptide
T1 construct: Chemically synthesized; also called CD20 peptide; biotin-CD20 peptide
T1 peptide: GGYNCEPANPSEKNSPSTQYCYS
Text: The human CD20 peptide extracellular loop was synthesized (amino acids: 165-185; […] (SEQ ID NO: 1)-biotin) and purified by RP-HPLC on a C-18 column and lyophilized as per the published procedure (29). This peptide was characterized by ESI-MS and immobilized on streptavidin magnetic beads for screening of FN3 binders. […] Briefly, yeast displaying 2.5×10⁸ FN3 mutants were sorted for binding to magnetic beads with immobilized CD20 peptide, followed by fluorescence-activated cell sorting for full-length proteins using the C-terminal c-myc epitope. Plasmid DNA from selected clones was recovered, mutated by error-prone PCR of either the entire FN3 gene or the paratope loops, and reintroduced into yeast by electroporation with homologous recombination. As binder enrichment progressed in later evolutionary cycles, fluorescence-activated cell sorting for binding to soluble CD20 peptide was also used. Six cycles of selection and mutation were performed. Plasmid DNA was recovered, transformed into bacteria, and individual clones were sequenced by standard DNA sequencing methods.

[2] = target: T1, biotinylated human CD20 extracellular …; assay: affinity titration with yeast surface display and flow cytometry, biotinylated CD20
[3] = target: T2, human CD20 antigen on live Ramos cells (human, UniProt P11836 1-297); assay: flow cytometry on live Ramos cells, 1:1 fit; flow cytometry, live Ramos cells (cellular CD20)
T2 construct: whole, on cells; Endogenous CD20 on Ramos cells (ATCC); also called cellular CD20; huCD20
T2 sequence (looked up): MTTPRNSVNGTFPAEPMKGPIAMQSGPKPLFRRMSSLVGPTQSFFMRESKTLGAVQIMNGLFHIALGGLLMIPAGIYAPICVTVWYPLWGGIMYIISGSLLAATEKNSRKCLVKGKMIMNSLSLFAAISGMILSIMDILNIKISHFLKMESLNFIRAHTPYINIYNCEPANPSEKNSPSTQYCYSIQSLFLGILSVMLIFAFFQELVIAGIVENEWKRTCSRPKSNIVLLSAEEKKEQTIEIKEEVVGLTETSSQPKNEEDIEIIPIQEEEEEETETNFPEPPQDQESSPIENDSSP
Protocol: FIG. 1C illustrates a graph showing the antigen-binding activity of FN3CD20. Ramos cells were incubated with the indicated concentration (0.5-80 nM) of FITC-FN3CD20 for 1 h at 4° C. Cells were washed and analyzed by flow cytometry. The data are expressed as the mean±standard deviation of three independent experiments. Data were normalized with respect to saturated fluorescence intensity (plateau) observed at the highest target concentrations.

[4] = target: T1, biotinylated human CD20 extracellular …; assay: SPR (Biacore), biotin-CD20 peptide on a streptavidin chip, 1:1 fit, 25 C; SPR, CD20 peptide (amino acids 165-185)
Protocol: FN3CD20 protein (0.4, 2, 10, 50, 250, and 750 nM) was diluted in HBS and injected into the chip at a flow rate of 15 μL/min for 1 min at 25° C.
All measurements were performed at 25° C. on a BIAcore 100 instrument and streptavidin chip (GE healthcare Biosciences, PA). The streptavidin chip was first cleaned with three consecutive 1-min. injections of 40 μl, of a solution of 1 M NaCl in 50 mM NaOH before the immobilization procedure. Five minutes after the cleaning process when the sensorgram reached a stable baseline, biotynalated CD20 peptide, diluted in running buffer to 20 μg/mL, was injected for 7 min. using a flow rate of 5 μL/min. The same procedure was performed for immobilization of non-specific CD20 peptide, except that the non-specific CD20 peptide was diluted in running buffer to 200 μg/ml. To attain maximum immobilization level of biotin peptides on the surface of streptavidin, multiple injections were performed.
Target antigen of CD20 peptide was immobilized on a streptavidin chip. FN3CD20 was analyzed in 10 mM HEPES, pH 7.4, 150 mM NaCl, 0.005% Tween 20 at […] concentrations between 0 and 750 nM, and non-specific FN3 was used as control. The flow-rate was 15 μl/min; association and dissociation times were 1 and 2 min, respectively. […] The data were analyzed using BIAeval (BIAcore) software, with a global fitting to the 1:1 binding model. […]

[5] = target: T2, human CD20 antigen on live Ramos cells; assay: radiotracer binding to Ramos cells

binding result [1]: binds
B1: FN3CD20-01 (fibronectin type 3 domain clone selected against the CD20 peptide from the G4 library) (designed binder)
chain: ASVSDVPRDLEVVAATPTSLLISWHYTCAGSYRITYGETGGNSPVQEFTVPGSWKTATISGLKPGVDYTITVYAVTHYYGWDRYSHPISINYRTGSHHHHHH
notes: It was a library clone during selection

binding result [1]: binds
B2: FN3CD20-02 (fibronectin type 3 domain clone selected against the CD20 peptide from the G4 library) (designed binder)
chain: ASVSDVPRDLEVVAATPTSLLISWHYTCADSYRITYGETGGNSPVQEFTVPWYVSNATISGLKPGVDYTITVYVVTHYYGWDRYSHPISINYRTGSHHHHHH
notes: as for B1

Kd [2]: 0.0143 µM
B3: FN3CD20 clone displayed on the yeast surface (designed binder, not shown: large carriers)
chain: ASVSDVPRDLEVVAATPTSLLISWCRQRCADSYRITYGETGGNSPVQEFTVPGSWKTATISGLKPGVDYTITVYVVTHYYGWDRYSHPISINYRTGSHHHHHH
notes: also called one clone; this clone

Kd [3]: 0.02 µM
Kd [4]: 0.022 µM
B4: FN3CD20 (engineered fibronectin type 3 domain binding CD20, soluble, C-terminal His6 tag) (designed binder)
chain: ASVSDVPRDLEVVAATPTSLLISWCRQRCADSYRITYGETGGNSPVQEFTVPGSWKTATISGLKPGVDYTITVYVVTHYYGWDRYSHPISINYRTGSHHHHHH
notes: Made in E. coli with a His6 tag; also called FN3 scaffold

binding result [5]: binds
B5: 64Cu-Do-FN3CD20 (64Cu-DOTA-labelled FN3CD20) (designed binder)
chain: ASVSDVPRDLEVVAATPTSLLISWCRQRCADSYRITYGETGGNSPVQEFTVPGSWKTATISGLKPGVDYTITVYVVTHYYGWDRYSHPISINYRTGSHHHHHH
modifications: DOTA conjugated to primary amines (1.8 DOTA molecules per FN3 protein), chelating 64Cu
notes: also called 64Cu-FN3CD20; 64Cu-FN3

binding result [1]: binds
B6: FN3CD20-03 (fibronectin type 3 domain clone selected against the CD20 peptide from the G4 library) (designed binder)
chain: ASVSDVPRDLGVVAATPTSLLISWHSSDVSYYRITYGETGGNSPVQEFTVPYWFTNTTISGLKPGVDYTITVYAATYRDCSSEPISINYRTGSHHHHHH
notes: as for B1
